Measured values: the supplement of paper PMC10126150
± gives the standard deviation of the averaged measurements.

test system: ATP; experiment: switch fluorescence ratio, 500 uM ATP over buffer (Cy3 cluster intensity, sum of 5 cycles each) (fold (ratio)); higher = stronger signal-on switching upon ATP binding; sequences stand for … in TCGTCGGCAGCGTCAGATGTGTATAAGAGACAGTTTTTTTTTTTTTTTTTTTTTTTTT…TC; conditions: aptamer strand: ATP DNA aptamer (quencher-CACCTGGGGGAGTATTGCGGAGGAAGG + anchor), 100 nM annealed; ATP concentration: 500 uM
Outline: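 Exposure to 500 uM ATP lasted 15 min at 22 °C before imaging, and a selection-buffer image was taken beforehand, for Cy3-labelled switching-strand clusters on a modified Illumina MiSeq flow-cell annealed to 100 nM quencher-labelled ATP aptamer. Five buffer/ATP cycles were run with NaOH stripping and re-annealing between them. The fluorescence ratio per cluster is summed target-cycle over summed buffer-cycle Cy3 intensity, averaged per switch-domain sequence. Clusters outside 100-1000 RFU were excluded.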

| Sequence | switch fluorescence ratio |
| --- | --- |
| TTTTCCCTGC | 1.24 ± 0.11 |
| TTTTCCGTTT | 1.02 ± 0.032 |
| TTTTCCT | 1.04 ± 0.02 |
| TTTTCGAAGC | 2.08 ± 1.5 |
| TTTTCGAAGG | 1.005 ± 0.0028 |
| TTTTCGAGAG | 1 ± 0.026 |
| TTTTCGATAG | 1 ± 0.013 |
| TTTTCGGATT | 0.9845 ± 0.0054 |
| TTTTCGGCGT | 1.01 ± 0.01 |
| TTTTCGGCTG | 0.943 ± 0.11 |
| TTTTCGGTCA | 0.976 ± 0.026 |
| TTTTCGGTCT | 0.994 ± 0.017 |
| TTTTCGGTGA | 0.9713 ± 0.0057 |
| TTTTCGGTGC | 1.06 ± 0.1 |
| TTTTCGTATG | 1 ± 0.053 |
| TTTTCGTTTC | 1.01 ± 0.033 |
| TTTTCTACGG | 0.989 ± 0.02 |
| TTTTCTACTT | 0.999 ± 0.027 |
| TTTTCTATAT | 1.01 ± 0.065 |
| TTTTCTGTGT | 0.9398 ± 0.0077 |
| TTTTCTTAGG | 1.08 ± 0.14 |
| TTTTCTTCTT | 1.02 ± 0.068 |
| TTTTCTTTAT | 1.03 ± 0.036 |
| TTTTGAAAAA | 1 ± 0.061 |

| Sequence | switch fluorescence ratio |
| --- | --- |
| TTTTGAAAGA | 1.01 ± 0.062 |
| TTTTGAAAGT | 1.07 ± 0.14 |
| TTTTGAATAA | 0.9685 ± 0.0049 |
| TTTTGACCGC | 1.09 ± 0.061 |
| TTTTGACTGT | 0.966 ± 0.015 |
| TTTTGAGATC | 1.04 ± 0.045 |
| TTTTGAGGAG | 0.9807 ± 0.0038 |
| TTTTGAGGTT | 0.983 ± 0.034 |
| TTTTGAGTGA | 0.954 ± 0.041 |
| TTTTGAGTGT | 0.995 ± 0.051 |
| TTTTGATAGA | 1 ± 0.058 |
| TTTTGATATA | 0.9989 ± 0.0085 |
| TTTTGATCAA | 1.01 ± 0.02 |
| TTTTGATCGA | 1.03 ± 0.11 |
| TTTTGATCGG | 0.982 ± 0.037 |
| TTTTGATGAT | 1.02 ± 0.013 |
| TTTTGATGTA | 0.977 ± 0.019 |
| TTTTGATTTA | 1 ± 0.053 |
| TTTTGATTTT | 1.02 ± 0.041 |
| TTTTGCATTA | 1.33 ± 0.5 |
| TTTTGCCCGG | 1.01 ± 0.033 |
| TTTTGCGCGA | 1.09 ± 0.095 |
| TTTTGCGGTT | 0.998 ± 0.038 |
| TTTTGCTCAA | 0.996 ± 0.011 |

| Sequence | switch fluorescence ratio |
| --- | --- |
| TTTTGCTTCT | 1.03 ± 0.02 |
| TTTTGGAAAA | 1.02 ± 0.017 |
| TTTTGGAAGA | 0.983 ± 0.039 |
| TTTTGGAAGG | 1.02 ± 0.0083 |
| TTTTGGAATA | 1.02 ± 0.059 |
| TTTTGGAGGG | 1.01 ± 0.034 |
| TTTTGGCCAG | 0.991 ± 0.061 |
| TTTTGGCCTG | 1.02 ± 0.038 |
| TTTTGGCTAA | 1.01 ± 0.022 |
| TTTTGGCTGG | 1.01 ± 0.052 |
| TTTTGGCTGT | 1.09 ± 0.25 |
| TTTTGGGA | 1.01 ± 0.064 |
| TTTTGGGAAT | 1.04 ± 0.052 |
| TTTTGGGCCT | 1.042 ± 0.0088 |
| TTTTGGGTTC | 1.03 ± 0.07 |
| TTTTGGGTTT | 1.02 ± 0.086 |
| TTTTGGTCTG | 1.01 ± 0.031 |
| TTTTGGTTAC | 1.04 ± 0.055 |
| TTTTGGTTGA | 0.977 ± 0.025 |
| TTTTGGTTTT | 1 ± 0.039 |
| TTTTGTAATG | 0.991 ± 0.035 |
| TTTTGTAGCA | 1.1 ± 0.03 |
| TTTTGTATGG | 0.9893 ± 0.0079 |
| TTTTGTATTG | 0.98 ± 0.024 |

| Sequence | switch fluorescence ratio |
| --- | --- |
| TTTTGTCAGG | 0.993 ± 0.0079 |
| TTTTGTGATT | 0.984 ± 0.013 |
| TTTTGTGGGG | 0.999 ± 0.037 |
| TTTTGTGTTG | 0.996 ± 0.013 |
| TTTTGTTAAA | 1.01 ± 0.028 |
| TTTTGTTACA | 1.011 ± 0.0029 |
| TTTTGTTAGG | 0.98 ± 0.01 |
| TTTTGTTGCA | 1.038 ± 0.0056 |
| TTTTGTTTAC | 1.01 ± 0.028 |
| TTTTGTTTGC | 1.02 ± 0.03 |
| TTTTTAAAAG | 0.988 ± 0.011 |
| TTTTTAAACT | 0.9921 ± 0.0076 |
| TTTTTAAATT | 0.997 ± 0.025 |
| TTTTTAACAC | 1.02 ± 0.021 |
| TTTTTAACGC | 1.3 ± 0.29 |
| TTTTTAAGAT | 0.995 ± 0.035 |
| TTTTTAAGGG | 0.996 ± 0.032 |
| TTTTTACATT | 0.99 ± 0.032 |
| TTTTTACTAG | 1.007 ± 0.0023 |
| TTTTTACTTT | 1.05 ± 0.17 |
| TTTTTAGGGT | 1 ± 0.073 |
| TTTTTAGGTA | 0.992 ± 0.017 |
| TTTTTAGTCG | 1 ± 0.036 |
| TTTTTAGTGT | 1.01 ± 0.035 |

| Sequence | switch fluorescence ratio |
| --- | --- |
| TTTTTAGTTT | 0.987 ± 0.028 |
| TTTTTATACT | 1.02 ± 0.027 |
| TTTTTATAGG | 1.008 ± 0.0041 |
| TTTTTATTA | 1.001 ± 0.0052 |
| TTTTTATTTG | 0.995 ± 0.05 |
| TTTTTCAAAA | 1.029 ± 0.0063 |
| TTTTTCACGA | 1.03 ± 0.019 |
| TTTTTCACGG | 0.999 ± 0.034 |
| TTTTTCACGT | 1.02 ± 0.029 |
| TTTTTCACTG | 1 ± 0.052 |
| TTTTTCAGCA | 1.04 ± 0.029 |
| TTTTTCAGCT | 1.02 ± 0.012 |
| TTTTTCATAT | 1.08 ± 0.2 |
| TTTTTCATCA | 0.982 ± 0.036 |
| TTTTTCATGG | 1 ± 0.031 |
| TTTTTCCAAG | 1.02 ± 0.011 |
| TTTTTCCCCG | 1.33 ± 0.6 |
| TTTTTCCGCG | 1.128 ± 0.0084 |
| TTTTTCCTGA | 1.02 ± 0.011 |
| TTTTTCGCCT | 1.01 ± 0.029 |
| TTTTTCGCGG | 1.01 ± 0.015 |
| TTTTTCGCTG | 1.03 ± 0.022 |
| TTTTTCGGCG | 1.01 ± 0.029 |
| TTTTTCGGG | 0.996 ± 0.014 |

| Sequence | switch fluorescence ratio |
| --- | --- |
| TTTTTCGGGA | 1 ± 0.023 |
| TTTTTCGGTG | 1.04 ± 0.11 |
| TTTTTCGTAA | 1.04 ± 0.061 |
| TTTTTCGTGA | 1.13 ± 0.15 |
| TTTTTCTAAG | 1.014 ± 0.007 |
| TTTTTCTAAT | 1.03 ± 0.071 |
| TTTTTCTGGT | 1.01 ± 0.075 |
| TTTTTGACGG | 1 ± 0.033 |
| TTTTTGATAA | 0.9683 ± 0.0063 |
| TTTTTGCAAT | 1.43 ± 0.24 |
| TTTTTGCTAT | 1.06 ± 0.062 |
| TTTTTGGACT | 0.983 ± 0.012 |
| TTTTTGGCAA | 2.35 ± 2.2 |
| TTTTTGGCAG | 0.971 ± 0.024 |
| TTTTTGGGAT | 1.01 ± 0.031 |
| TTTTTGGGCC | 0.994 ± 0.017 |
| TTTTTGGGGG | 0.997 ± 0.035 |
| TTTTTGGGGT | 0.999 ± 0.034 |
| TTTTTGGGTA | 0.973 ± 0.027 |
| TTTTTGGTGA | 0.984 ± 0.013 |
| TTTTTGTAAA | 0.9936 ± 0.003 |
| TTTTTGTAT | 0.979 ± 0.015 |
| TTTTTGTGTT | 1 ± 0.025 |
| TTTTTGTTCT | 0.996 ± 0.024 |

| Sequence | switch fluorescence ratio |
| --- | --- |
| TTTTTGTTTC | 1.02 ± 0.046 |
| TTTTTTAAGA | 1.01 ± 0.025 |
| TTTTTTATCG | 1 ± 0.031 |
| TTTTTTCAAG | 0.978 ± 0.019 |
| TTTTTTCAGC | 1 ± 0.048 |
| TTTTTTCATC | 1.031 ± 0.0078 |
| TTTTTTCGAT | 0.995 ± 0.047 |
| TTTTTTCGGG | 0.993 ± 0.023 |
| TTTTTTGAAT | 0.995 ± 0.027 |
| TTTTTTGGCA | 0.982 ± 0.035 |
| TTTTTTGGTG | 1.02 ± 0.036 |
| TTTTTTGTGC | 0.9901 ± 0.0052 |
| TTTTTTGTTA | 1 ± 0.024 |
| TTTTTTTACA | 0.998 ± 0.01 |
| TTTTTTTCCT | 1.02 ± 0.066 |
| TTTTTTTGGA | 0.976 ± 0.021 |
| TTTTTTTGGC | 1.02 ± 0.029 |
| TTTTTTTGGG | 1 ± 0.036 |
| TTTTTTTTAC | 1.04 ± 0.029 |
| TTTTTTTTCG | 1.05 ± 0.12 |
| TTTTTTTTG | 0.987 ± 0.019 |
| TTTTTTTTGC | 1.02 ± 0.092 |
| TTTTTTTTTA | 1.01 ± 0.022 |
